# Laboratory results: patent US20100260668A1 (published 2010)
# B1: DVD465 (bispecific antibody, human IgG1, kappa)
# heavy: not shown
# light: DIQMTQSPSSLSASVGDRVTITCRASQDVSTAVAWYQQKPGKAPKLLIYSASFLYSGVPSRFSGSGSGTDFTLTISSLQPEDFATTYYCQQSYTGTVTFGQGTKVEIKRTVAAPDIQMTQSPSSLSASVGDRVTITCRASQDVSTAVAWYQQKPGKAPKLLIYSASFLYSGVPSRFSGSGSGTDFTLTISSLQPEDFATYYCQQSYTTPPTFGQGTKVEIKRTVAAPSVFIFPPSDEQLKSGTASVVCLLNNFYPREAKVQWKVDNALQSGNSQESVTEQDSKDSTYSLSSTLTLSKADYEKHKVYACEVTHQGLSSPVTKSFNRGEC
# notes: HC linker short, LC linker short; also called DVD-Ig DVD465
# B2: DVD471 (bispecific antibody, human IgG1, kappa, L234A L235A)
# heavy: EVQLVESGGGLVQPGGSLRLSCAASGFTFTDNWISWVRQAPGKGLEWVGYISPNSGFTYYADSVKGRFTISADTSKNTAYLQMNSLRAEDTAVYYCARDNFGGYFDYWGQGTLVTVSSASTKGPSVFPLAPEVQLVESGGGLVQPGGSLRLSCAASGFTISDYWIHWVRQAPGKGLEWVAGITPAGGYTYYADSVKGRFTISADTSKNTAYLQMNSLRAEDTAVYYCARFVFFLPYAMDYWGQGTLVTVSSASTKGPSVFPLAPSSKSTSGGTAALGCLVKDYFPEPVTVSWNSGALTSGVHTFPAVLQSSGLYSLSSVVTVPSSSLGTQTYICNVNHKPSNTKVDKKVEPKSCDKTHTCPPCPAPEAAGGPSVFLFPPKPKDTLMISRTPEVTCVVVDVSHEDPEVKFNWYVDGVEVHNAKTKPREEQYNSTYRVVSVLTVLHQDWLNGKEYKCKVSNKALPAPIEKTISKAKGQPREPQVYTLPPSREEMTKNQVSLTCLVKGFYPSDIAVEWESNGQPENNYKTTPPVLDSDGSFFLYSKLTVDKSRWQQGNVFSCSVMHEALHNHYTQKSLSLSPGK
# light: DIQMTQSPSSLSASVGDRVTITCRASQDVSTAVAWYQQKPGKAPKLLIYSASFLYSGVPSRFSGSGSGTDFTLTISSLQPEDFATTYYCQQSYTGTVTFGQGTKVEIKRTVAAPSVFIFPPDIQMTQSPSSLSASVGDRVTITCRASQDVSTAVAWYQQKPGKAPKLLIYSASFLYSGVPSRFSGSGSGTDFTLTISSLQPEDFATYYCQQSYTTPPTFGQGTKVEIKRTVAAPSVFIFPPSDEQLKSGTASVVCLLNNFYPREAKVQWKVDNALQSGNSQESVTEQDSKDSTYSLSSTLTLSKADYEKHKVYACEVTHQGLSSPVTKSFNRGEC
# notes: HC linker long, LC linker long; also called DVD-Ig DVD471
# B3: DVD477 (bispecific antibody, human IgG1, kappa, L234A L235A)
# heavy: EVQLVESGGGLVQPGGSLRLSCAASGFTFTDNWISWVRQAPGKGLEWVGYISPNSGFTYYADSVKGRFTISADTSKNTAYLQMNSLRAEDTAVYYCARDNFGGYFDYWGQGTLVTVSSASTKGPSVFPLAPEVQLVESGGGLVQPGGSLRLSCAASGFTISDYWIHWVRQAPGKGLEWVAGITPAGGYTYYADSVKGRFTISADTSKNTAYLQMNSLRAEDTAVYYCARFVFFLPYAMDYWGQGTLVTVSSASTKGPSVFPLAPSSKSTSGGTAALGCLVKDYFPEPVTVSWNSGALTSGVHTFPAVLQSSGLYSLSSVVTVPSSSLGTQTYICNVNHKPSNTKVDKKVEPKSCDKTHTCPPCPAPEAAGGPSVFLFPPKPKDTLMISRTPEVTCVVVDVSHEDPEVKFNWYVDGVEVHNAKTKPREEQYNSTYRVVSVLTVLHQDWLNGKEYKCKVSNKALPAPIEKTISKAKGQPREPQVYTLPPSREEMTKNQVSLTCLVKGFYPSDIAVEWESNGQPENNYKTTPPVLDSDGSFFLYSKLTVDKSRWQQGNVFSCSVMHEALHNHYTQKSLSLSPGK
# light: DIQMTQSPSSLSASVGDRVTITCRASQDVSTAVAWYQQKPGKAPKLLIYSASFLYSGVPSRFSGSGSGTDFTLTISSLQPEDFATTYYCQQSYTGTVTFGQGTKVEIKRTVAAPDIQMTQSPSSLSASVGDRVTITCRASQDVSTAVAWYQQKPGKAPKLLIYSASFLYSGVPSRFSGSGSGTDFTLTISSLQPEDFATYYCQQSYTTPPTFGQGTKVEIKRTVAAPSVFIFPPSDEQLKSGTASVVCLLNNFYPREAKVQWKVDNALQSGNSQESVTEQDSKDSTYSLSSTLTLSKADYEKHKVYACEVTHQGLSSPVTKSFNRGEC
# notes: HC linker long, LC linker short; also called DVD-Ig DVD477
# B4: DVD483 (bispecific antibody, human IgG1, kappa)
# heavy: not shown
# light: DIQMTQSPSSLSASVGDRVTITCRASQDVSTAVAWYQQKPGKAPKLLIYSASFLYSGVPSRFSGSGSGTDFTLTISSLQPEDFATTYYCQQSYTGTVTFGQGTKVEIKRTVAAPSVFIFPPDIQMTQSPSSLSASVGDRVTITCRASQDVSTAVAWYQQKPGKAPKLLIYSASFLYSGVPSRFSGSGSGTDFTLTISSLQPEDFATYYCQQSYTTPPTFGQGTKVEIKRTVAAPSVFIFPPSDEQLKSGTASVVCLLNNFYPREAKVQWKVDNALQSGNSQESVTEQDSKDSTYSLSSTLTLSKADYEKHKVYACEVTHQGLSSPVTKSFNRGEC
# notes: HC linker short, LC linker long; also called DVD-Ig DVD483
# B5: DVD443 (bispecific antibody, human IgG1, kappa)
# heavy: not shown
# light: DIVMTQSPDSLAVSLGERATISCRASESVDNYGISFMKWFQQKPGQPPKLLIYAASNQGSGVPDRFSGSGSGTDFTLTISSLQAEDVAVYYCQQSKEVPWTFGGGTKVEIKRTVAAPDIQMTQSPSSLSASVGDRVTITCRASQDVSTAVAWYQQKPGKAPKLLIYSASFLYSGVPSRFSGSGSGTDFTLTISSLQPEDFATYYCQQSYTTPPTFGQGTKVEIKRTVAAPSVFIFPPSDEQLKSGTASVVCLLNNFYPREAKVQWKVDNALQSGNSQESVTEQDSKDSTYSLSSTLTLSKADYEKHKVYACEVTHQGLSSPVTKSFNRGEC
# notes: HC linker short, LC linker short; also called DVD-Ig DVD443
# B6: DVD449 (bispecific antibody, human IgG1, kappa)
# heavy: not shown
# light: DIVMTQSPDSLAVSLGERATISCRASESVDNYGISFMKWFQQKPGQPPKLLIYAASNQGSGVPDRFSGSGSGTDFTLTISSLQAEDVAVYYCQQSKEVPWTFGGGTKVEIKRTVAAPSVFIFPPDIQMTQSPSSLSASVGDRVTITCRASQDVSTAVAWYQQKPGKAPKLLIYSASFLYSGVPSRFSGSGSGTDFTLTISSLQPEDFATYYCQQSYTTPPTFGQGTKVEIKRTVAAPSVFIFPPSDEQLKSGTASVVCLLNNFYPREAKVQWKVDNALQSGNSQESVTEQDSKDSTYSLSSTLTLSKADYEKHKVYACEVTHQGLSSPVTKSFNRGEC
# notes: HC linker long, LC linker long; also called DVD-Ig DVD449
# B7: DVD455 (bispecific antibody, human IgG1, kappa)
# heavy: not shown
# light: DIVMTQSPDSLAVSLGERATISCRASESVDNYGISFMKWFQQKPGQPPKLLIYAASNQGSGVPDRFSGSGSGTDFTLTISSLQAEDVAVYYCQQSKEVPWTFGGGTKVEIKRTVAAPDIQMTQSPSSLSASVGDRVTITCRASQDVSTAVAWYQQKPGKAPKLLIYSASFLYSGVPSRFSGSGSGTDFTLTISSLQPEDFATYYCQQSYTTPPTFGQGTKVEIKRTVAAPSVFIFPPSDEQLKSGTASVVCLLNNFYPREAKVQWKVDNALQSGNSQESVTEQDSKDSTYSLSSTLTLSKADYEKHKVYACEVTHQGLSSPVTKSFNRGEC
# notes: HC linker long, LC linker short; also called DVD-Ig DVD455
# B8: DVD461 (bispecific antibody, human IgG1, kappa)
# heavy: not shown
# light: DIVMTQSPDSLAVSLGERATISCRASESVDNYGISFMKWFQQKPGQPPKLLIYAASNQGSGVPDRFSGSGSGTDFTLTISSLQAEDVAVYYCQQSKEVPWTFGGGTKVEIKRTVAAPSVFIFPPDIQMTQSPSSLSASVGDRVTITCRASQDVSTAVAWYQQKPGKAPKLLIYSASFLYSGVPSRFSGSGSGTDFTLTISSLQPEDFATYYCQQSYTTPPTFGQGTKVEIKRTVAAPSVFIFPPSDEQLKSGTASVVCLLNNFYPREAKVQWKVDNALQSGNSQESVTEQDSKDSTYSLSSTLTLSKADYEKHKVYACEVTHQGLSSPVTKSFNRGEC
# notes: HC linker short, LC linker long; also called DVD-Ig DVD461
# B9: DVD513 (bispecific antibody, human IgG1, kappa)
# heavy: not shown
# light: QAVVTQESALTTSPGETVTLTCRSSTGAVTTSNYANWVQEKPDHLFTGLIGGTNNRAPGVPARFSGSLIGDKAALTITGAQTEDEAIYFCALWYSNHWVFGGGTKLTVLGQPKAAPDIQMTQSPSSLSASVGDRVTITCRASQDVSTAVAWYQQKPGKAPKLLIYSASFLYSGVPSRFSGSGSGTDFTLTISSLQPEDFATYYCQQSYTTPPTFGQGTKVEIKRTVAAPSVFIFPPSDEQLKSGTASVVCLLNNFYPREAKVQWKVDNALQSGNSQESVTEQDSKDSTYSLSSTLTLSKADYEKHKVYACEVTHQGLSSPVTKSFNRGEC
# notes: HC linker short, LC linker short; also called DVD-Ig DVD513
# B10: DVD519 (bispecific antibody, human IgG1, kappa, lambda)
# heavy: not shown
# light: QAVVTQESALTTSPGETVTLTCRSSTGAVTTSNYANWVQEKPDHLFTGLIGGTNNRAPGVPARFSGSLIGDKAALTITGAQTEDEAIYFCALWYSNHWVFGGGTKLTVLGQPKAAPSVTLFPPDIQMTQSPSSLSASVGDRVTITCRASQDVSTAVAWYQQKPGKAPKLLIYSASFLYSGVPSRFSGSGSGTDFTLTISSLQPEDFATYYCQQSYTTPPTFGQGTKVEIKRTVAAPSVFIFPPSDEQLKSGTASVVCLLNNFYPREAKVQWKVDNALQSGNSQESVTEQDSKDSTYSLSSTLTLSKADYEKHKVYACEVTHQGLSSPVTKSFNRGEC
# notes: HC linker long, LC linker long; also called DVD-Ig DVD519
# B11: DVD525 (bispecific antibody, human IgG1, kappa)
# heavy: not shown
# light: QAVVTQESALTTSPGETVTLTCRSSTGAVTTSNYANWVQEKPDHLFTGLIGGTNNRAPGVPARFSGSLIGDKAALTITGAQTEDEAIYFCALWYSNHWVFGGGTKLTVLGQPKAAPDIQMTQSPSSLSASVGDRVTITCRASQDVSTAVAWYQQKPGKAPKLLIYSASFLYSGVPSRFSGSGSGTDFTLTISSLQPEDFATYYCQQSYTTPPTFGQGTKVEIKRTVAAPSVFIFPPSDEQLKSGTASVVCLLNNFYPREAKVQWKVDNALQSGNSQESVTEQDSKDSTYSLSSTLTLSKADYEKHKVYACEVTHQGLSSPVTKSFNRGEC
# notes: HC linker long, LC linker short; also called DVD-Ig DVD525
# B12: DVD531 (bispecific antibody, human IgG1, kappa, lambda)
# heavy: not shown
# light: QAVVTQESALTTSPGETVTLTCRSSTGAVTTSNYANWVQEKPDHLFTGLIGGTNNRAPGVPARFSGSLIGDKAALTITGAQTEDEAIYFCALWYSNHWVFGGGTKLTVLGQPKAAPSVTLFPPDIQMTQSPSSLSASVGDRVTITCRASQDVSTAVAWYQQKPGKAPKLLIYSASFLYSGVPSRFSGSGSGTDFTLTISSLQPEDFATYYCQQSYTTPPTFGQGTKVEIKRTVAAPSVFIFPPSDEQLKSGTASVVCLLNNFYPREAKVQWKVDNALQSGNSQESVTEQDSKDSTYSLSSTLTLSKADYEKHKVYACEVTHQGLSSPVTKSFNRGEC
# notes: HC linker short, LC linker long; also called DVD-Ig DVD531
# B13: DVD489 (bispecific antibody, human IgG1, kappa, L234A L235A)
# heavy: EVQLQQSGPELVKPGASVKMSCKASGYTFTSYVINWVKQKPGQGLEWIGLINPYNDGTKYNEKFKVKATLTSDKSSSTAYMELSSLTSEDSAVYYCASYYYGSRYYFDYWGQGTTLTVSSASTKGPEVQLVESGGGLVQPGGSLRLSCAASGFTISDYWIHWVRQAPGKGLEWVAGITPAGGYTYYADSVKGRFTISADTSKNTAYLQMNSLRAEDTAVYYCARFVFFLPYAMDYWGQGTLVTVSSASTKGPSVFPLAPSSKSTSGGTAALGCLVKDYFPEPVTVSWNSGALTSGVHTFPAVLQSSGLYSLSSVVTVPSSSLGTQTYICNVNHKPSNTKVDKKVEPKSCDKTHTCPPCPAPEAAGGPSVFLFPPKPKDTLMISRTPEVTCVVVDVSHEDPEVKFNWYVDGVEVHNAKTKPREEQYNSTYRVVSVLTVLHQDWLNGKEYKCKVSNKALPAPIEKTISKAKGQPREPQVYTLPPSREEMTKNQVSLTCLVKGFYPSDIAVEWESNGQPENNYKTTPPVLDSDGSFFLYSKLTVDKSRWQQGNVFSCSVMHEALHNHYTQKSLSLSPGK
# light: DIQMTQSSSYLSVSLGGRVTITCKASDHINNWLAWYQQKPGNAPRLLISGATSLETGVPSRFSGSGSGKDYTLSITSLQTEDVATYYCQQYWSIPLTFGAGTKLELKRTVAAPDIQMTQSPSSLSASVGDRVTITCRASQDVSTAVAWYQQKPGKAPKLLIYSASFLYSGVPSRFSGSGSGTDFTLTISSLQPEDFATYYCQQSYTTPPTFGQGTKVEIKRTVAAPSVFIFPPSDEQLKSGTASVVCLLNNFYPREAKVQWKVDNALQSGNSQESVTEQDSKDSTYSLSSTLTLSKADYEKHKVYACEVTHQGLSSPVTKSFNRGEC
# notes: HC linker short, LC linker short; also called DVD-Ig DVD489
# B14: DVD495 (bispecific antibody, human IgG1, kappa)
# heavy: not shown
# light: DIQMTQSSSYLSVSLGGRVTITCKASDHINNWLAWYQQKPGNAPRLLISGATSLETGVPSRFSGSGSGKDYTLSITSLQTEDVATYYCQQYWSIPLTFGAGTKLELKRTVAAPSVFIFPPDIQMTQSPSSLSASVGDRVTITCRASQDVSTAVAWYQQKPGKAPKLLIYSASFLYSGVPSRFSGSGSGTDFTLTISSLQPEDFATYYCQQSYTTPPTFGQGTKVEIKRTVAAPSVFIFPPSDEQLKSGTASVVCLLNNFYPREAKVQWKVDNALQSGNSQESVTEQDSKDSTYSLSSTLTLSKADYEKHKVYACEVTHQGLSSPVTKSFNRGEC
# notes: HC linker long, LC linker long; also called DVD-Ig DVD495
# B15: DVD501 (bispecific antibody, human IgG1, kappa)
# heavy: not shown
# light: DIQMTQSSSYLSVSLGGRVTITCKASDHINNWLAWYQQKPGNAPRLLISGATSLETGVPSRFSGSGSGKDYTLSITSLQTEDVATYYCQQYWSIPLTFGAGTKLELKRTVAAPDIQMTQSPSSLSASVGDRVTITCRASQDVSTAVAWYQQKPGKAPKLLIYSASFLYSGVPSRFSGSGSGTDFTLTISSLQPEDFATYYCQQSYTTPPTFGQGTKVEIKRTVAAPSVFIFPPSDEQLKSGTASVVCLLNNFYPREAKVQWKVDNALQSGNSQESVTEQDSKDSTYSLSSTLTLSKADYEKHKVYACEVTHQGLSSPVTKSFNRGEC
# notes: HC linker long, LC linker short; also called DVD-Ig DVD501
# Biological target: T1, DLL4 ECD His tag (UniProt Q9NR61 27-529, limits assumed)
# T1 construct: extracellular domain; also called DLL ECD His tag
# Assay: SPR (Biacore), DVD-Ig captured, DLL4 as analyte
Binder,Kd [nM],koff [s⁻¹],kon [M⁻¹ s⁻¹]
B1,0.205,0.000164,797000
B2,0.672,0.000252,376000
B3,0.306,0.000165,540000
B4,0.334,0.000139,416000
B5,4.11,0.000596,145000
B6,4.81,0.000584,121000
B7,4.7,0.000604,129000
B8,4.69,0.000538,115000
B9,2.5,0.000677,271000
B10,2.83,0.000472,167000
B11,2.57,0.00122,475000
B12,3.47,0.000858,248000
B13,0.283,8.38e-05,296000
B14,0.263,7.91e-05,301000
B15,0.302,8.14e-05,270000
